Target: chicken pectoral skeletal muscle actin (F-actin) (chicken) (UniProt P68139)
Test: co-sedimentation

Ka: 1.7e+06 M⁻¹
Substance: rat tropomyosin Tm5a (natural protein)
